Source: FireProtDB (doi:10.1006/jmbi.1993.1336)

Conditions: Aspergillus oryzae (strain ATCC 42149 / RIB 40), GdnHCl, Fluorescence, reversible: yes, whole UniProt chain shown
[1] = pH 5, 25 °C, Sodium acetate 0.1 M

B1: Guanyl-specific ribonuclease T1 wild type, P00651 (protein)
chain: MMYSKLLTLTTLLLPTALALPSLVERACDYTCGSNCYSSSDVSTAQAAGYQLHEDGETVGSNSYPHKYNNYEGFDFSVSSPYYEWPILSSGDVYSGGSPGADRVVFNENNQLAGVITHTGASGNNFVECT
denaturant m value [1]: 2.75 kcal/mol/M
denaturant midpoint (higher = more stable) [1]: 3.64 M
unfolding free energy [1]: 10 kcal/mol
denaturant m value (pH 8, 10 °C, Tris 0.1 M): 2.63 kcal/mol/M
denaturant midpoint (higher = more stable) (pH 8, 10 °C, Tris 0.1 M): 3.21 M
unfolding free energy (pH 8, 10 °C, Tris 0.1 M): 8.44 kcal/mol
denaturant m value (pH 8, 25 °C, Tris 0.1 M): 2.46 kcal/mol/M
denaturant midpoint (higher = more stable) (pH 8, 25 °C, Tris 0.1 M): 2.4 M
unfolding free energy (pH 8, 25 °C, Tris 0.1 M): 5.91 kcal/mol
